# Assay results taken from US20210063414A1, “METHODS FOR PREVENTING AND/OR TREATING BONE LOSS CONDITIONS BY MODULATING IRISIN” (Dana-Farber Cancer Institute, Inc., priority 2018, published 2021).
# T1: MLO-Y4 cell surface proteins (Mus musculus, UniProt P41216)
# T1 construct: endogenous in cells; host or cells: MLO-Y4
# T1 sequence (P41216 1-699): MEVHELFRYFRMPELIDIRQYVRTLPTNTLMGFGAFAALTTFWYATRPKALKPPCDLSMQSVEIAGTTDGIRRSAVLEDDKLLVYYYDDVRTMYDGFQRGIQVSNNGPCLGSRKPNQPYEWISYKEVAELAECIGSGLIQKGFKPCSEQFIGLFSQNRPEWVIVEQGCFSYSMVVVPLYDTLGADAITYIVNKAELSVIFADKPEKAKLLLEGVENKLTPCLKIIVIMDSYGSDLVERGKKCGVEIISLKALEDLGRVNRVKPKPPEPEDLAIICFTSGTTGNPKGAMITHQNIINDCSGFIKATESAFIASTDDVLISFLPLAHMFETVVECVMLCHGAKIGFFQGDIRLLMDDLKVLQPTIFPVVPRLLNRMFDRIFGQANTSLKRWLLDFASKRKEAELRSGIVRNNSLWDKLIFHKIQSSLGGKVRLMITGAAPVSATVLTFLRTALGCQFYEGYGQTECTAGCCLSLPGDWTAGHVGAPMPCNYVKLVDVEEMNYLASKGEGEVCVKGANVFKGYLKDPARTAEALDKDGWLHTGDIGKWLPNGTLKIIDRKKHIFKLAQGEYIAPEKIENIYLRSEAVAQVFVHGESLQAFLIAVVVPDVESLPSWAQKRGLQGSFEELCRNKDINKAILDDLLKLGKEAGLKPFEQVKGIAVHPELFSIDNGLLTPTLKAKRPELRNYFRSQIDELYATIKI
# B1: irisin: secreted cleaved form of FNDC5; recombinant human/mouse irisin with C-terminal his tag produced in HEK293 cells (protein)
# chain: DSPSAPVNVTVRHLKANSAVVSWDVLEDEVVIGFAISQQKKDVRMLRFIQEVNTTTRSCALWDLEEDTEYIVHVQAISIQGQSPASEPVLFKTPREAEKMASKNKDEVTMKE
# modifications: left off: small tags and cut ends
# notes: secreted cleaved form of FNDC5; recombinant human/mouse irisin with C-terminal his tag produced in HEK293 cells
# Experiments:
# Experiment in all cases: Crosslinking/co-immunoprecipitation/mass spectrometry (TMT quantitative proteomics) to identify irisin receptors
# Assay type in all cases: binding
# [1] = molecular target: T1, MLO-Y4 cell surface proteins; conditions: co-precipitated protein Acsl1 (ACSL1_MOUSE)
# How it was run: (§1)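 Relative protein abundance came from 6-plex TMT MS3 quantitation on an Orbitrap Fusion Lumos, after in-gel trypsin digestion of Coomassie-stained SDS-PAGE lanes. Input was a Ni-NTA pulldown (250 mM imidazole elution) of lysates from murine MLO-Y4 cells. These cells were treated on ice with His-tagged irisin or adipsin (10 nM, 20 min) in serum-free medium, then crosslinked with 1.5 mM DTSSP for 30 min.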
# [2] = molecular target: T2, MLO-Y4 cell surface proteins (Mus musculus, UniProt P62880); conditions: co-precipitated protein Gnb2 (GBB2_MOUSE)
# T2 construct: endogenous in cells; host or cells: MLO-Y4
# T2 sequence (P62880 whole entry): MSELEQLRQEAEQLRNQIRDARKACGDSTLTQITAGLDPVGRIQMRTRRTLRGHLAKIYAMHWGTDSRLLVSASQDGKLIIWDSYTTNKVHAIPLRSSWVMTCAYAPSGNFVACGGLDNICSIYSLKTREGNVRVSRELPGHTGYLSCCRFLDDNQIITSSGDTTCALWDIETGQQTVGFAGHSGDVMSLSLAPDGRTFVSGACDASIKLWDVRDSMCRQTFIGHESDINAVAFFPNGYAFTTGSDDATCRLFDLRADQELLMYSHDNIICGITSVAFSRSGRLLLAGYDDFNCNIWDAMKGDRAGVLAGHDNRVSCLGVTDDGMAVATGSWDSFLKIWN
# How it was run: as §1
# [3] = molecular target: T3, MLO-Y4 cell surface proteins (Mus musculus, UniProt Q9D125); conditions: co-precipitated protein Mrps25 (RT25_MOUSE)
# T3 construct: endogenous in cells; host or cells: MLO-Y4
# How it was run: as §1
molecule,measurement,setting,value
B1,TMT signal-to-noise ratio,[1],192.15
same,irisin/adipsin TMT signal-to-noise ratio,[1],0.532
same,TMT signal-to-noise ratio,[2],165.95
same,irisin/adipsin TMT signal-to-noise ratio,[2],0.563
same,TMT signal-to-noise ratio,[3],10.7103
same,irisin/adipsin TMT signal-to-noise ratio,[3],0.126
